Experimental data from US20160319321.
“And” between values parts separate entries of the source, which are not always exact repeats. Identical values can stand only once.

Columns and labels:
[1] = biological target: T1, DVEPGQPLYDDDDK-[Arg34]GLP-1(9-37)
T1 chain: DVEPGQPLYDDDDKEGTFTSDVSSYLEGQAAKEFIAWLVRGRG

[2] = biological target: T2, DVKPGEPLYDDDDK-[Arg34]GLP-1(9-37)
T2 chain: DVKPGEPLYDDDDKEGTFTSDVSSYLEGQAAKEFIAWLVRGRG

[3] = biological target: T3, DVKPGQPEYDDDDK-[Arg34]GLP-1(9-37)
T3 chain: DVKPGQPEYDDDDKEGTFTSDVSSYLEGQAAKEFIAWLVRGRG

[4] = biological target: T4, DVKPGQPEYDEGDR-[Arg34]GLP-1(9-37)
T4 chain: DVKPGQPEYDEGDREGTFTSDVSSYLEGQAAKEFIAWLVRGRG

[5] = biological target: T5, DVKPGQPLADDDDK-[Arg34]GLP-1(9-37)
T5 chain: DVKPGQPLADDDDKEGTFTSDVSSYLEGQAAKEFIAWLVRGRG

[6] = biological target: T6, DVKPGQPLEDEGDR-[Arg34]GLP-1(9-37)
T6 chain: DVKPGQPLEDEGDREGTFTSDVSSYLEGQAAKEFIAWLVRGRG

[7] = biological target: T7, DVKPGQPLYDEGDR-[Arg34]GLP-1(9-37)
T7 chain: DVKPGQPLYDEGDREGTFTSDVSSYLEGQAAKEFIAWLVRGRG

[8] = biological target: T8, Lys(Dnp)-AEGDR-HAEGT-Lys(Abz)amide
T8 chain: XAEGDRHAEGTX

[9] = biological target: T9, Lys(Dnp)-DEGDR-HAEGT-Lys(Abz)amide
T9 chain: KDEGDRHAEGTK

[10] = biological target: T10, Lys(Dnp)-DEGDR-QGTFT-Lys(Abz)amide
T10 chain: KDEGDRQGTFTK

[11] = biological target: T11, Lys(Dnp)-DFGDR-HGEGT-Lys(Abz)amide
T11 chain: KDFGDRHGEGTK

[12] = biological target: T12, Lys(Dnp)-DHGDR-HAEGT-Lys(Abz)amide
T12 chain: KDHGDRHAEGTK

[13] = biological target: T13, Lys(Dnp)-DHGDR-HGEGT-Lys(Abz)amide
T13 chain: KDHGDRHGEGTK

[14] = biological target: T14, Lys(Dnp)-DLGDR-HAEGT-Lys(Abz)amide
T14 chain: KDLGDRHAEGTK

[15] = biological target: T15, Lys(Dnp)-DLGDR-QGTFT-Lys(Abz)amide
T15 chain: KDLGDRQGTFTK

[16] = biological target: T16, Lys(Dnp)-DQGDR-HAEGT-Lys(Abz)amide
T16 chain: KDQGDRHAEGTK

[17] = biological target: T17, Lys(Dnp)-DSGDR-HAEGT-Lys(Abz)amide
T17 chain: KDSGDRHAEGTK

[18] = biological target: T18, Lys(Dnp)-DTGDR-HAEGT-Lys(Abz)amide
T18 chain: KDTGDRHAEGTK

[19] = biological target: T19, Lys(Dnp)-DYGDR-HAEGT-Lys(Abz)amide
T19 chain: KDYGDRHAEGTK

[20] = biological target: T20, Lys(Dnp)-EAGDR-HAEGT-Lys(Abz)amide
T20 chain: KEAGDRHAEGTK

[21] = biological target: T21, Lys(Dnp)-EAGDR-HGEGT-Lys(Abz)amide
T21 chain: KEAGDRHGEGTK

[22] = biological target: T22, Lys(Dnp)-EDEGDR-HAEGT-Lys(Abz)amide
T22 chain: KEDEGDRHAEGTK

[23] = biological target: T23, Lys(Dnp)-EDGDR-HGEGT-Lys(Abz)amide
T23 chain: KEDGDRHGEGTK

[24] = biological target: T24, Lys(Dnp)-EEGDR-EGTFT-Lys(Abz)amide
T24 chain: KEEGDREGTFTK

[25] = biological target: T25, Lys(Dnp)-EHGDR-HGEGT-Lys(Abz)amide
T25 chain: KEHGDRHGEGTK

[26] = biological target: T26, Lys(Dnp)-EYGDR-HGEGT-Lys(Abz)amide
T26 chain: KEYGDRHGEGTK

[27] = biological target: T27, Lys(Dnp)-HDEGDR-HAEGT-Lys(Abz)amide
T27 chain: KHDEGDRHAEGTK

[28] = biological target: T28, Lys(Dnp)-HEGDR-HAEGT-Lys(Abz)amide
T28 chain: KHEGDRHAEGTK

[29] = biological target: T29, Lys(Dnp)-IMGDRHAEGT-Lys(Abz)amide
T29 chain: XIMGDRHAEGTX

[30] = biological target: T30, Lys(Dnp)-LDEGDR-HAEGT-Lys(Abz)amide
T30 chain: KLDEGDRHAEGTK

[31] = biological target: T31, Lys(Dnp)-MEGDR-HAEGT-Lys(Abz)amide
T31 chain: KMEGDRHAEGTK

[32] = biological target: T32, Lys(Dnp)-NEDGDR-HAEGT-Lys(Abz)amide (not fully specified)
T32 chain: KNEDGDRHAEGTK

[33] = biological target: T33, Lys(Dnp)-PDEGDR-HAEGT-Lys(Abz)amide
T33 chain: KPDEGDRHAEGTK

[34] = biological target: T34, Lys(Dnp)-PEGDR-HAEGT-Lys(Abz)amide
T34 chain: KPEGDRHAEGTK

[35] = biological target: T35, Lys(Dnp)-QDEGDR-HAEGT-Lys(Abz)amide
T35 chain: KQDEGDRHAEGTK

[36] = biological target: T36, Lys(Dnp)-SGGDRHAEGT-Lys(Abz)amide
T36 chain: KSGGDRHAEGTK

[37] = biological target: T37, Lys(Dnp)-TDEGDR-HAEGT-Lys(Abz)amide
T37 chain: KTDEGDRHAEGTK

[38] = biological target: T38, Lys(Dnp)-VDEGDR-HAEGT-Lys(Abz)amide
T38 chain: KVDEGDRHAEGTK

[39] = biological target: T39, Lys(Dnp)-VEGDR-HAEGT-Lys(Abz)amide
T39 chain: KVEGDRHAEGTK

[40] = biological target: T40, Lys(Dnp)-YDEGDR-HAEGT-Lys(Abz)amide
T40 chain: KYDEGDRHAEGTK

B1: bovine Enterokinase light chain variant (C112A, L134K, I135K) (protein)
chain: IVGGSDSREGAWPWVVALYFDDQQVCGASLVSRDWLVSAAHCVYGRNMEPSKWKAVLGLHMASNLTSPQIETRLIDQIVINPHYNKRRKNNDIAMMHLEMKVNYTDYIQPIALPEENQVFPPGRICSIAGWGAKKYQGSTADVLQEADVPLLSNEKCQQQMPEYNITENMVCAGYEAGGVDSCQGDSGGPLMCQENNRWLLAGVTSFGYQCALPNRPGVYARVPRFTEWIQSFLH
[1]
  Activity (%): 203%
[2]
  Activity (%): 162%
[3]
  Activity (%): 158%
[4]
  Activity (%): 625%
[5]
  Activity (%): 134%
[6]
  Activity (%): 653%
[7]
  Activity (%): 707%
[8]
  Activity (%): 382%
[9]
  Activity (%): 1100% and 942%
[10]
  Activity (%): 411%
[11]
  Activity (%): 253%
[12]
  Activity (%): 545%
[13]
  Activity (%): 526%
[14]
  Activity (%): 795% and 722%
[15]
  Activity (%): 222%
[16]
  Activity (%): 770%
[17]
  Activity (%): 504% and 380%
[18]
  Activity (%): 434%
[19]
  Activity (%): 505%
[20]
  Activity (%): 582%
[21]
  Activity (%): 275%
[22]
  Activity (%): 159%
[23]
  Activity (%): 462%
[24]
  Activity (%): 580%
[25]
  Activity (%): 491%
[26]
  Activity (%): 338%
[27]
  Activity (%): 204%
[28]
  Activity (%): 468%
[29]
  Activity (%): 125%
[30]
  Activity (%): 259%
[31]
  Activity (%): 419%
[32]
  Activity (%): 114%
[33]
  Activity (%): 194%
[34]
  Activity (%): 441%
[35]
  Activity (%): 141%
[36]
  Activity (%): 243%
[37]
  Activity (%): 237%
[38]
  Activity (%): 184%
[39]
  Activity (%): 388%
[40]
  Activity (%): 153%
